Test results from US20240270846A1 (published 2024).
Positions count from the first letter of the chain named. Names and notes keep the numbering of the source.

B1: GLS3000 V94Q one-amino acid altered one-arm antibody (CE115HA000-pE22Hh / Kn010G3 / GLS3000 V94Q-kappa) (antibody, human IgG1, kappa, L234A L235A, N297A, name in Kabat numbering)
heavy: QVQLVESGGGVVQPGRSLRLSCAASGFTFSNAWMHWVRQAPGKGLEWVAQIKAKSNNYATYYAESVKGRFTISRDDSKNSLYLQMNSLKTEDTAVYYCRYVHYGAYYGVDAWGQGTTVTVSSASTKGPSVFPLAPSSKSTSGGTAALGCLVKDYFPEPVTVSWNSGALTSGVHTFPAVLQSSGLYSLSSVVTVPSSSLGTQTYICNVNHKPSNTKVDKKVEPKSCDKTHTCPPCPAPEAAGGPSVFLFPPKPKDTLMISRTPEVTCVVVDVSHEDPEVKFNWYVDGVEVHNAKTKPREEQYASTYRVVSVLTVLHQDWLNGKEYKCKVSNKALPAPIEKTISKAKGQPREPQVYTLPPSRCELTKNQVSLSCAVKGFYPSDIAVEWESNGQPENNYKTTPPVLDSDGSFFLVSKLTVDKSRWQQGNVFSCSVMHEALHNHYTQKSLSLSPDYKDDDDK
chain: EPKSSDKTHTCPPCPAPELLGGPSVFLFPPKPKDTLMISRTPEVTCVVVDVSHEDPEVKFNWYVDGVEVHNAKTKPREEQYNSTYRVVSVLTVLHQDWLNGKEYKCKVSNKALPAPIEKTISKAKGQPREPQVCTLPPSRDELTKNQVSLWCLVKGFYPSDIAVEWESNGQPENNYKTTPPVLDSDGSFFLYSKLTVDKSRWQQGNVFSCSVMHEALHNRYTQKSLSLSP
light: DIVMTQSPLSLPVTPGEPASISCRSSQSLVHSNRNTYLHWYQQKPGQAPRLLIYKVSNRFSGVPDRFSGSGSGTDFTLKISRVEAEDVGVYYCGQGTQQPYTFGQGTKLEIKRTVAAPSVFIFPPSDEQLKSGTASVVCLLNNFYPREAKVQWKVDNALQSGNSQESVTEQDSKDSTYSLSSTLTLSKADYEKHKVYACEVTHQGLSSPVTKSFNRGEC
notes: One-arm antibody; substitution position in Kabat numbering; also called L chain altered form, Kabat 94 V to Q
B2: GLS3000 Q93Y one-amino acid altered one-arm antibody (CE115HA000-pE22Hh / Kn010G3 / GLS3000 Q93Y-kappa) (antibody, human IgG1, kappa, L234A L235A, N297A, name in Kabat numbering)
heavy: B1 heavy
chain: B1 chain
light: B1 light with Q98Y, Q99V
notes: One-arm antibody; substitution position in Kabat numbering; also called L chain altered form, Kabat 93 Q to Y
B3: GLS3000 R77S one-amino acid altered one-arm antibody (CE115HA000-pE22Hh / Kn010G3 / GLS3000 R77S-kappa) (antibody, human IgG1, kappa, L234A L235A, N297A, name in Kabat numbering)
heavy: B1 heavy
chain: B1 chain
light: B1 light with R82S, Q99V
notes: One-arm antibody; substitution position in Kabat numbering; also called L chain altered form, Kabat 77 R to S
B4: GLS3000 T97P one-amino acid altered one-arm antibody (CE115HA000-pE22Hh / Kn010G3 / GLS3000 T97P-kappa) (antibody, human IgG1, kappa, L234A L235A, N297A, name in Kabat numbering)
heavy: B1 heavy
chain: B1 chain
light: B1 light with Q99V, T102P
notes: One-arm antibody; substitution position in Kabat numbering; also called L chain altered form, Kabat 97 T to P
B5: GLS3000 V94T one-amino acid altered one-arm antibody (CE115HA000-pE22Hh / Kn010G3 / GLS3000 V94T-kappa) (antibody, human IgG1, kappa, L234A L235A, N297A, name in Kabat numbering)
heavy: B1 heavy
chain: B1 chain
light: B1 light with Q99T
notes: One-arm antibody; substitution position in Kabat numbering; also called L chain altered form, Kabat 94 V to T
B6: GLS3000 Q93P one-amino acid altered one-arm antibody (CE115HA000-pE22Hh / Kn010G3 / GLS3000 Q93P-kappa) (antibody, human IgG1, kappa, L234A L235A, N297A, name in Kabat numbering)
heavy: B1 heavy
chain: B1 chain
light: B1 light with Q98P, Q99V
notes: One-arm antibody; substitution position in Kabat numbering; also called L chain altered form, Kabat 93 Q to P
B7: GLS3000 V94S one-amino acid altered one-arm antibody (CE115HA000-pE22Hh / Kn010G3 / GLS3000 V94S-kappa) (antibody, human IgG1, kappa, L234A L235A, N297A, name in Kabat numbering)
heavy: B1 heavy
chain: B1 chain
light: B1 light with Q99S
notes: One-arm antibody; substitution position in Kabat numbering; also called L chain altered form, Kabat 94 V to S
B8: GLS3000 T92Y one-amino acid altered one-arm antibody (CE115HA000-pE22Hh / Kn010G3 / GLS3000 T92Y-kappa) (antibody, human IgG1, kappa, L234A L235A, N297A, name in Kabat numbering)
heavy: B1 heavy
chain: B1 chain
light: B1 light with T97Y, Q99V
notes: One-arm antibody; substitution position in Kabat numbering; also called L chain altered form, Kabat 92 T to Y
B9: GLS3000 Q93S one-amino acid altered one-arm antibody (CE115HA000-pE22Hh / Kn010G3 / GLS3000 Q93S-kappa) (antibody, human IgG1, kappa, L234A L235A, N297A, name in Kabat numbering)
heavy: B1 heavy
chain: B1 chain
light: B1 light with Q98S, Q99V
notes: One-arm antibody; substitution position in Kabat numbering; also called L chain altered form, Kabat 93 Q to S
B10: GLS3000 Q90S one-amino acid altered one-arm antibody (CE115HA000-pE22Hh / Kn010G3 / GLS3000 Q90S-kappa) (antibody, human IgG1, kappa, L234A L235A, N297A, name in Kabat numbering)
heavy: B1 heavy
chain: B1 chain
light: B1 light with Q95S, Q99V
notes: One-arm antibody; substitution position in Kabat numbering; also called L chain altered form, Kabat 90 Q to S
B11: GLS3000 Q90P one-amino acid altered one-arm antibody (CE115HA000-pE22Hh / Kn010G3 / GLS3000 Q90P-kappa) (antibody, human IgG1, kappa, L234A L235A, N297A, name in Kabat numbering)
heavy: B1 heavy
chain: B1 chain
light: B1 light with Q95P, Q99V
notes: One-arm antibody; substitution position in Kabat numbering; also called L chain altered form, Kabat 90 Q to P
B12: GLS3000 V94W one-amino acid altered one-arm antibody (CE115HA000-pE22Hh / Kn010G3 / GLS3000 V94W-kappa) (antibody, human IgG1, kappa, L234A L235A, N297A, name in Kabat numbering)
heavy: B1 heavy
chain: B1 chain
light: B1 light with Q99W
notes: One-arm antibody; substitution position in Kabat numbering; also called L chain altered form, Kabat 94 V to W
B13: GLS3000 T92S one-amino acid altered one-arm antibody (CE115HA000-pE22Hh / Kn010G3 / GLS3000 T92S-kappa) (antibody, human IgG1, kappa, L234A L235A, N297A, name in Kabat numbering)
heavy: B1 heavy
chain: B1 chain
light: B1 light with T97S, Q99V
notes: One-arm antibody; substitution position in Kabat numbering; also called L chain altered form, Kabat 92 T to S

Target: T1, CD3 epsilon homodimer protein (UniProt P07766 23-126)
T1 construct: also called CD3 (CD3 epsilon)
Assay: SPR Biacore T200, CD3 epsilon homodimer immobilised on CM4, one-arm antibody as analyte, single-cycle kinetics; reference unaltered GLS3000 antibody;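 further: CD3 epsilon homodimer attached to the CM4 chip via amine coupling, measured at 25 °C with HBS-EP+ as running buffer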

T1 sequence (P07766 23-126): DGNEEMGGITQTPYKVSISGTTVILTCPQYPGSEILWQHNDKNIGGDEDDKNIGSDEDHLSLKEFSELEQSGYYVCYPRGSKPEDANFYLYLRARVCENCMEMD

Binder | dissociation constant KD(M) ratio of L chain altered form to GLS3000 [ratio]
B1 | 1.1
B2 | 0.76
B3 | 0.94
B4 | 3.35
B5 | 1.06
B6 | 39.5
B7 | 0.81
B8 | 2.55
B9 | 0.75
B10 | 0.96
B11 | 15.9
B12 | 1.81
B13 | 0.81
